Measured values taken from PMC11047093.

Tests used:
His-APOBEC2 = biological target: T1, His-APOBEC2 (Mus musculus, UniProt Q9WV35 1-224); test: MST
T1 sequence: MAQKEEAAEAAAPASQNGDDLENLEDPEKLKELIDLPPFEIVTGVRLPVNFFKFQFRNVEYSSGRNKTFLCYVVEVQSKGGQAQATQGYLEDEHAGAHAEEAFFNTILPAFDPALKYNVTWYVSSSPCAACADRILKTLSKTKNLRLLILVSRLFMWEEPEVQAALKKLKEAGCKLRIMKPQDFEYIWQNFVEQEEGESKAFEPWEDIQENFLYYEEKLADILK

His-APOBEC2 E100A = biological target: T2, His-APOBEC2 E100A (Mus musculus, UniProt Q9WV35 1-224, E100A); test: MST
T2 sequence: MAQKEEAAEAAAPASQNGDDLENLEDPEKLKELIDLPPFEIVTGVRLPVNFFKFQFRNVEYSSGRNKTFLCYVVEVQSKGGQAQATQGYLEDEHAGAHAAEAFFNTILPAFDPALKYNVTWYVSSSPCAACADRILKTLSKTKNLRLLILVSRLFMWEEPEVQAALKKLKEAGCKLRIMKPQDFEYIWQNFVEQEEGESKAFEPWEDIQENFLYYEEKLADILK

| Binder | Kd (His-APOBEC2) [nM] | binding result (His-APOBEC2 E100A) |
| --- | --- | --- |
| GGCGGCGCGGCCCCGCCCCCTCCTCCGGC (ssDNA) [SP/KLF motif] | 926 ± 243 | no binding |
| TCTCAAGAAAAAAAAAAAAAGAC (ssDNA) [A-tract (poly-A) motif] |  | no binding |
